Source: patent US20110262454A1 (published 2011)

How the values were obtained:
human CD38 on cells [1] = molecular target: T1, human CD38 on cells (human, UniProt P28907 1-300); assay: cell-based or functional assay
human CD38 on cells [2] = molecular target: T1, human CD38 on cells; assay: apparent KD, FACS titration on Ramos cells, non-linear regression
human CD38 on cells [3] = molecular target: T1, human CD38 on cells; assay: FACS binding titration on Ramos cells
human CD38 on cells [4] = molecular target: T1, human CD38 on cells; assay: FACS binding on Ramos cells

Row | ADCC EC50, Ramos target cells, human NK effector cells, LDH release (human CD38 on cells [1]) [ng/mL] | CDC EC50, Raji-IMG cells, human complement 5% (human CD38 on cells [1]) [ng/mL] | apoptosis, Annexin V-positive Daudi cells after 24 h with 10 nM antibody (human CD38 on cells [1]) [%] | apoptosis, Annexin V-positive MOLP-8 cells (human CD38 on cells [1]) [%] | apoptosis, Annexin V-positive Ramos cells after subtraction of the non-treated control (human CD38 on cells [1]) [%] | Kd (human CD38 on cells [2]) [pM] | Binder | CDC, specific viability of Daudi cells at 1.25 µg/mL or higher with complement (human CD38 on cells [1]) [%] | also measured
1 | 1.3 | 5 |  |  |  |  | ch38SB13 chimeric anti-CD38 antibody (antibody, V domains shown) VH: QIQLVQSGPELKKPGETVKISCKASGYTLTSYGMNWVKQAPGKGLKWMGWINTYTGEPTYADDFKGRFAFSLETSASTAFLQINNLKNEDTATYFCVRRGFAYWGQGTLVTVSA VL: NIVLTQSPASLAVSLGQRATISCRASESVEIYGNGFMNWFQQKPGQPPKLLIYRASNLESGIPARFSGSGSRTEFTLTIDPVEADDVATYYCQQINEDPFTFGSGTKLEIKR | 65 | 
2 | 1.3 | 10.1 |  |  |  |  | ch38SB18 chimeric anti-CD38 antibody (antibody, V domains shown) VH: QIQLVQSGPELKKPGETVKISCKASGYTFTNSGMNWVKQAPGKGLKWMGWINTYTGEPTYADDFKGRFAFSLETSASSAYLQISNLKNEDTATYFCARRGFVYWGQGTLVTVSA VL: DIVLTQSPASLAVSLGQRATISCRASESVAIYGNSFLKWFQQKPGQPPKLLIYRASNLESGIPARFSGSGSGTDFTLTINPVEADDVATYYCQQINEDPYTFGGGTKLEIKR | 85 | ADCC EC50, LP-1 multiple myeloma cells (human CD38 on cells [1]): 0.56 ng/mL; CDC EC50, LP-1 multiple myeloma cells (human CD38 on cells [1]): 32 ng/mL
3 |  |  | > 30 | ~50 | ≥ 7 | 100 | 38SB13 murine anti-CD38 monoclonal antibody (antibody, V domains shown, Murine hybridoma antibody purified by Protein A or G; also called hybridoma PTA-7667) VH: QIQLVQSGPELKKPGETVKISCKASGYTLTSYGMNWVKQAPGKGLKWMGWINTYTGEPTYADDFKGRFAFSLETSASTAFLQINNLKNEDTATYFCVRRGFAYWGQGTLVTVSA VL: NIVLTQSPASLAVSLGQRATISCRASESVEIYGNGFMNWFQQKPGQPPKLLIYRASNLESGIPARFSGSGSRTEFTLTIDPVEADDVATYYCQQINEDPFTFGSGTKLEIKR |  | 
4 |  |  | > 30 | ~50 | ≥ 7 | 100 | 38SB18 murine anti-CD38 monoclonal antibody (antibody, V domains shown, Murine hybridoma antibody; also called hybridoma PTA-7669) VH: QIQLVQSGPELKKPGETVKISCKASGYTFTNSGMNWVKQAPGKGLKWMGWINTYTGEPTYADDFKGRFAFSLETSASSAYLQISNLKNEDTATYFCARRGFVYWGQGTLVTVSA VL: DIVLTQSPASLAVSLGQRATISCRASESVAIYGNSFLKWFQQKPGQPPKLLIYRASNLESGIPARFSGSGSGTDFTLTINPVEADDVATYYCQQINEDPYTFGGGTKLEIKR |  | 
5 | 2.2 | 20 |  |  |  |  | ch38SB30 chimeric anti-CD38 antibody (antibody, V domains shown) VH: QVQLQQSGPELVRPGASVKISCKTSGYAFSGSWMNWVKQRPGQGLEWIGRIYPGDGDIIYNGNFRDKVTLSADKSSNTAYMQLSSLTSVDSAVYFCSRWGTFTPSFDYWGQGTTLTVSS VL: DIVMTQSHKFLSTSVGDRVSITCKASQDVVTAVAWFQQKPGQSPKLLIYSASHRYTGVPDRFTGSGSGTDFTFTIISVQAEDLAVYYCQQHYTTPTTFGGGTKLDFRR | 45 | 
6 |  |  | > 30 | ~50 | ≥ 7 | 160 | 38SB30 murine anti-CD38 monoclonal antibody (antibody, V domains shown, Murine hybridoma antibody; also called hybridoma PTA-7666) VH: QVQLQQSGPELVRPGASVKISCKTSGYAFSGSWMNWVKQRPGQGLEWIGRIYPGDGDIIYNGNFRDKVTLSADKSSNTAYMQLSSLTSVDSAVYFCSRWGTFTPSFDYWGQGTTLTVSS VL: DIVMTQSHKFLSTSVGDRVSITCKASQDVVTAVAWFQQKPGQSPKLLIYSASHRYTGVPDRFTGSGSGTDFTFTIISVQAEDLAVYYCQQHYTTPTTFGGGTKLDFRR |  | 
7 | 1.8 | 28 |  |  |  |  | ch38SB19 chimeric anti-CD38 antibody (antibody, V domains shown, also called chimeric 38SB19) VH: QVQLQQSGAELARPGTSVKLSCKASGYTFTDYWMQWVKQRPGQGLEWIGTIYPGDGDTGYAQKFKGKATLTADKSSKTVYMHLSSLASEDSAVYYCARGDYYGSNSLDYWGQGTSVTVSS VL: DIVMAQSHKFMSTSVGDRVSITCKASQDVSTVVAWYQQKPGQSPKRLIYSASYRYIGVPDRFTGSGSGTDFTFTISSVQAEDLAVYYCQQHYSPPYTFGGGTKLEIKR |  | ADCC EC50, LP-1 multiple myeloma cells (human CD38 on cells [1]): 0.34 ng/mL; CDC EC50, LP-1 multiple myeloma cells (human CD38 on cells [1]): 30 ng/mL; Kd (human CD38 on cells [3]): 180 pM
8 |  |  | > 30 | ~50 | ≥ 7 | 120 | 38SB19 murine anti-CD38 monoclonal antibody (antibody, V domains shown, also called mu38SB19; murine 38SB19) VH: QVQLQQSGAELARPGTSVKLSCKASGYTFTDYWMQWVKQRPGQGLEWIGTIYPGDGDTGYAQKFKGKATLTADKSSKTVYMHLSSLASEDSAVYYCARGDYYGSNSLDYWGQGTSVTVSS VL: DIVMAQSHKFMSTSVGDRVSITCKASQDVSTVVAWYQQKPGQSPKRLIYSASYRYIGVPDRFTGSGSGTDFTFTISSVQAEDLAVYYCQQHYSPPYTFGGGTKLEIKR |  | 
9 | 1.2 | 10 |  |  |  |  | ch38SB31 chimeric anti-CD38 antibody (antibody, V domains shown, also called chimeric 38SB31) VH: DVKLVESGGGLVKPGGSLKLSCEASGFTFSSYTLSWVRQTPETRLEWVATISIGGRYTYYPDSVEGRFTISRDNAKNTLYLQMNSLKSEDTAMYYCTRDFNGYSDFWGQGTTLTVSS VL: DTVMTQSHKFISTSVGDRVSITCKASQVVGSAVAWYQQKPGQSPKLLIYWASTRHTGVPDRFTGSGSGTDFTLTISNVQSEDLADYFCQQYNSYPYTFGGGTKLEIKR | 53 | Kd (human CD38 on cells [4]): 120 pM; ADCC EC50, LP-1 multiple myeloma cells (human CD38 on cells [1]): 0.24 ng/mL; CDC EC50, LP-1 multiple myeloma cells (human CD38 on cells [1]): 43 ng/mL
10 |  |  | > 30 | ~50 | ≥ 7 | 110 | 38SB31 murine anti-CD38 monoclonal antibody (antibody, V domains shown, Murine hybridoma antibody; also called hybridoma PTA-7668) VH: DVKLVESGGGLVKPGGSLKLSCEASGFTFSSYTLSWVRQTPETRLEWVATISIGGRYTYYPDSVEGRFTISRDNAKNTLYLQMNSLKSEDTAMYYCTRDFNGYSDFWGQGTTLTVSS VL: DTVMTQSHKFISTSVGDRVSITCKASQVVGSAVAWYQQKPGQSPKLLIYWASTRHTGVPDRFTGSGSGTDFTLTISNVQSEDLADYFCQQYNSYPYTFGGGTKLEIKR |  | 
11 |  |  |  |  |  |  | hu38SB31 v1.1 humanized anti-CD38 antibody (antibody, V domains shown) VH: EVQLVESGGGLVKPGGSLRLSCEASGFTFSSYTLSWVRQTPGKGLEWVATISIGGRYTYYPDSVKGRFTISRDNAKNTLYLQMNSLKSEDTAMYYCTRDFNGYSDFWGQGTTLTVSS VL: DTVMTQSPSTISTSVGDRVSITCKASQVVGSAVAWYQQKPGQSPKLLIYWASTRHTGVPDRFTGSGSGTDFTLTISNVQSDDLADYFCQQYNSYPYTFGGGTKLEIKR |  | Kd (human CD38 on cells [4]): 130 pM
12 |  |  |  |  |  |  | hu38SB31 v1.2 humanized anti-CD38 antibody (antibody, V domains shown) VH: EVQLVESGGGLVKPGGSLRLSCEASGFTFSSYTLSWVRQTPGKGLEWVATISIGGRYTYYPDSVKGRFTISRDNAKNTLYLQMNSLKSEDTAMYYCTRDFNGYSDFWGQGTTLTVSS VL: DTVMTQSPSSISTSIGDRVSITCKASQVVGSAVAWYQQKPGQSPKLLIYWASTRHTGVPARFTGSGSGTDFTLTISNVQSEDLADYFCQQYNSYPYTFGGGTKLEIKR |  | Kd (human CD38 on cells [4]): 110 pM
13 | 113 | 400 |  |  |  |  | ch38SB39 chimeric anti-CD38 antibody (antibody, V domains shown) VH: NVQLVESGGGLVQPGGSRKLSCAASGFTFSNFGMHWVRQAPEKGLEWVAYIRSGSGTIYYSDTVKGRFTISRDNPKNTLFLQMTSLRSEDTAMYYCARSYYDFGAWFAYWGQGTLVTVSA VL: DIVMTQSQKFMSTSVGDRVSVTCKASQNVGTNVAWYQHKPGQSPKIMIYSASSRYSGVPDRFTGSGSGTLFTLTINNVQSEDLAEYFCQQYNSYPLTFGSGTKLEIKR | 91 | 
14 |  |  | > 30 | ~50 | ≥ 7 | 3030 | 38SB39 murine anti-CD38 monoclonal antibody (antibody, V domains shown, Murine hybridoma antibody; also called hybridoma PTA-7671) VH: NVQLVESGGGLVQPGGSRKLSCAASGFTFSNFGMHWVRQAPEKGLEWVAYIRSGSGTIYYSDTVKGRFTISRDNPKNTLFLQMTSLRSEDTAMYYCARSYYDFGAWFAYWGQGTLVTVSA VL: DIVMTQSQKFMSTSVGDRVSVTCKASQNVGTNVAWYQHKPGQSPKIMIYSASSRYSGVPDRFTGSGSGTLFTLTINNVQSEDLAEYFCQQYNSYPLTFGSGTKLEIKR |  | 
